In PMC12446779, “Structural basis of transglucosylation in dextran dextrinase, a homolog of anomer-inverting GH15 glucoside hydrolases” (The Journal of Biological Chemistry, 2025) one finds stoichiometry N data, which are given here for 1 substance.

The assay has as its target Gluconobacter oxydans dextran dextrinase Δ382C (Met1–Ser902) (Gluconobacter oxydans). Kind of assay: SEC; gel filtration of purified Δ382C (Fig. S8); conditions not told in the text shown. (In gel filtration, larger molecules generally elute earlier.)

A word on the stoichiometry N: it is the number of molecules, sites or subunits per partner or assembly. “Gluconobacter oxydans dextran dextrinase Δ382C (Met1–Ser902) (enzyme)” yielded a stoichiometry N of 2.
